Starred links: 1 amine or outer side, 2 acyl side, 3 side chain; linkers in the order of their positions; H or OH if unused. Residues, ends and D or L forms follow the SMILES beside them. *: point of attachment. Doxorubicin(3'-N) = COc1cccc2c1C(=O)c1c(O)c3c(c(O)c1C2=O)C[C@@](O)(C(=O)CO)C[C@@H]3O[C@H]1C[C@H](N*)[C@H](O)[C@H](C)O1; Suc = O=C(CCC(=O)[*:2])[*:1]
Tests used:
[1] = test system: healthy ICR mice; test: Maximum tolerated dose / acute toxicity study
Excerpt: Animal survival of each group (n = 10, 5 female and 5 male) was continuously recorded for 14 days. Eventually, the evaluation and calculation of the median lethal dose (LD50) were completed with these collected data using the Bliss rule.

[2] = test system: MDA‐MB‐231 xenograft model; test: In vivo antitumor evaluation, MDA-MB-231 xenograft; parameters: species or system mouse
Excerpt: (§1) All the animal experimental procedures were recognized and approved by the Regional Ethics Committee for Animal Experiments at Ningbo University, China (Permit NO. SYXK (Zhe) 2019‐0005). The triple‐negative breast cancer (TNBC) xenograft tumors were established on female BALB/c nude mice (≈15 g) by subcutaneous injection of MDA‐MB‐231 cells (5 × 10^6 cells in each mouse). TNBC metastasis models were constructed by injecting MDA‐MB‐231‐luc cells (1 × 10^5 cells in each mouse) through the tail vein to female BALB/c nude mice. The day that MDA‐MB‐231‐luc was injected was set as D0. In vivo imaging system (IVIS) (Lumina XRMS Ш, PerkinElmer, USA) was utilized to identify the tumor metastasis at D12.
When the tumor volume of BALB/c mice reached ≈70 mm^3 (V = L × W × W/2), the tumor‐bearing mice were randomly divided into seven groups (n = 5 for each group). […] 100 µL drug was injected intravenously through the tail vein every other day for a total of five times. The day that the first injection was given was set as D0. Tumor size and mouse weight were measured every 2 days from the day that treatment started until D26.

[3] = target: T1, matrix metalloproteinase‐9 (MMP‐9) (Homo sapiens, UniProt P14780); test: MMPs-responsive cleavage of DOX-P18 by MMP-9 (HPLC, MS, fluorescence); type: in vitro ADME
T1 construct: purchased Novoprotein Scientific Inc. (Shanghai, China)
Method: The enzymatic reaction process was monitored by HPLC at 6, 12, 24, and 72 h.
Doxorubicin hydrochloride (DOX·HCl), trifluoroacetic acid (TFA), and anhydrous N,N-Dimethylformamide (DMF) were purchased from Aladdin (Shanghai, China).
Thioanisole (TA), 1,2-ethanedithiol (EDT), and phenol were obtained from Macklin (Shanghai, China). 4-methylmorpholine (NMM), N,N’-diisopropylcarbodiimide (DIC), and 1-hydroxybenzotriazole (HOBt) were purchased from OKA (Beijing, China). Rink amide methylbenzhydrylamine (MBHA) resin, Wang resin and all Fmoc-protected amino acids were obtained from NJPeptide (Nanjing, China). Ethanol, diethyl ether, acetonitrile (ACN), and methanol were purchased from Sinopharm Chemical Reagent Co., Ltd (Shanghai, China). Piperidine, p-nitrophenol, and succinic anhydride (Succ) were obtained from Sigma-Aldrich (Shanghai, China). Recombinant human matrix metalloproteinase-2 (MMP-2) and matrix metalloproteinase-9 (MMP-9) produced by Novoprotein Scientific Inc. (Shanghai, China) are supplied as a 0.2 μm filtered buffer mixture of 20 mM Tris-HCl, 2 mM CaCl2, 150 mM NaCl, 0.05 % Brij 35 (w/v), pH 7.5, and their specific activity is >1300 pmol/min/µg as measured under the described conditions. All commercial reagents and HPLC solvents were used with […]

[4] = test system: MDA‐MB‐231 metastasis model; test: Anti-metastasis evaluation, MDA-MB-231 metastasis model; type: in vivo, mouse; conditions: MDA-MB-231-luc i.v. model
Excerpt: as §1
For the TNBC metastasis model, two kinds of treatments were developed. […] After seven times of injections, continued observation of the mice was carried out. […] In vivo imaging system (IVIS Lumina XRMS Ш, PerkinElmer, USA) was utilized again to estimate the tumor metastasis at D26. Meanwhile, the mice were sacrificed and the main organs (heart, livers, spleen, lung, and kidney) were separated for histological analysis.

[5] = test system: MDA‐MB‐231 tumor‐bearing BALB/c nude mice; test: Biodistribution by ex vivo fluorescence imaging; type: in vivo, mouse; conditions: single i.v. injection, ex vivo fluorescence 2-12 h
Method: At 2, 4, 6, 8, 10, and 12 h post‐injection, the major organs and tumor were taken out and fluorescence signals were captured by IVIS.

[6] = Morphological transformation / particle size by DLS and TEM in PBS of different pH; type: physicochemical; conditions: DLS
[7] = test system: MDA‐MB‐231 cells; test: Flow cytometry: cellular uptake and cellular MMPs-responsive drug release; type: cell-based, human
Method: MDA‐MB‐231 cells were plated in 6‐well plates (2 × 10^5 cells per well) for 24 h. […] The mean fluorescence intensity (MFI) of 1 × 10^4 cells was detected by flow cytometry (FACSCalibur, BD, USA). Besides, 5 mM ethylenediaminetetraacetic acid (EDTA) purchased from Sigma was used as a model inhibitor to inhibit MMPs activity.

[8] = test system: MCF‐10A cells; test: CCK-8 cell viability assay, MCF-10A; type: cell-based, human; conditions: 24 h
Method: MDA‐MB‐231 cells were incubated in 96‐well plates for 24 h (1 × 10^4 cells per well). […] At the appointed time, 10 µL CCK‐8 solution was dropped into each well and further co‐incubated with treated cells for 2 h. The absorbance values at 450 nm were measured by an automated plate reader (iMark (168‐1130), Biorad, USA). The IC50 values were obtained from Microsoft Excel's FORECAST formula.
mammary epithelial cell line MCF-10A after 24 h incubation. Data are presented as
means ± standard deviations (n = 3).
(1 picture or pasted object on this page, not shown here)

[9] = MDA-MB-231, 40 µg mL^−1, 1 h 37 °C, endocytosis inhibitors, flow cytometry MFI

T1 sequence (P14780 94-707): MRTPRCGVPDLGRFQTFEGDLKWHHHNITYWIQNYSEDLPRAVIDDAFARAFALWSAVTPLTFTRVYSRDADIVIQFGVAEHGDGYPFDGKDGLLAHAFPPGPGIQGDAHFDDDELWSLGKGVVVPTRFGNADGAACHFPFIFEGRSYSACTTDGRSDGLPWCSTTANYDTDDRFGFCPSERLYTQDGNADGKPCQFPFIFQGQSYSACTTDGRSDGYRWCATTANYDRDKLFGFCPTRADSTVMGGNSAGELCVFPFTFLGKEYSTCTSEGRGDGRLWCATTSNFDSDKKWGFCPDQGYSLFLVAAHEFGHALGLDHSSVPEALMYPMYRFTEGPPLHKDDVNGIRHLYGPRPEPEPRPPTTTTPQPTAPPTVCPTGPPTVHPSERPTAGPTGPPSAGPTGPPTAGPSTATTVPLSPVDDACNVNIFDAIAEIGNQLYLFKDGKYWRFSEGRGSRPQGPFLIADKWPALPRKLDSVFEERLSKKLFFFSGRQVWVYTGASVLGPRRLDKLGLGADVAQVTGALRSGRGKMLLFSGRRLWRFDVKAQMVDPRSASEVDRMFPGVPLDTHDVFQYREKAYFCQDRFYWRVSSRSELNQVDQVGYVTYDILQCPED

CC[C@H](C)[C@H](NC(=O)[C@@H]1CCCN1C(=O)[C@H](CC(N)=O)NC(=O)[C@H](CC(N)=O)NC(=O)[C@H](Cc1ccc(O)cc1)NC(=O)[C@H](Cc1c[nH]cn1)NC(=O)[C@H](CCCNC(=N)N)NC(=O)CNC(=O)[C@H](CCCNC(=N)N)NC(=O)[C@@H](NC(=O)CNC(=O)[C@H](CC(C)C)NC(=O)[C@@H]1CCCN1C(=O)CCC(=O)N[C@H]1C[C@H](O[C@H]2C[C@](O)(C(=O)CO)Cc3c(O)c4c(c(O)c32)C(=O)c2c(OC)cccc2C4=O)O[C@@H](C)[C@H]1O)C(C)C)C(=O)N[C@@H](Cc1c[nH]c2ccccc12)C(=O)N[C@@H](CCCNC(=N)N)C(=O)N[C@@H](CCC(N)=O)C(=O)N[C@@H](CCCNC(=N)N)C(=O)N[C@@H](Cc1ccc(O)cc1)C(N)=O [DOX‐P18] ({Doxorubicin(3'-N)-Suc}-PLGVRGRHYNNPIWRQRY-NH2)
Histological analysis of major organs ([1]; 14 days after single dose, 40 mg kg^−1 DOX (or DOX equivalent)): no significant differences in major organs | Blood routine indexes ([1]; 14 days after single injection, n = 3, DOX: WBC, PLT, PCT at 10 mg kg^−1, DOX-P18: all indexes, different doses): not significantly different | Improvement of biosafety (LD50 versus DOX) ([1]; LD50 in DOX equivalents versus free DOX): 67.8% | Single-dose median lethal dose (LD50) ([1]; single intravenous dose, 14 days, n = 10 per group, Bliss rule): 221.5 mg/kg | Death / body weight in tumor-bearing mice ([2]; MDA-MB-231 tumor-bearing nude mice, DOX-P18 up to 100 mg kg^−1 (20 mg kg^−1 DOX), DOX at 10 and 20 mg kg^−1): no death or obvious weight losses | Tumor growth inhibition ([2]; MDA-MB-231 xenograft, 100 mg kg^−1 (equivalent to 20 mg kg^−1 DOX) i.v. every other day, five times, n = 5): significant inhibitory efficacy | Histological analysis of major organs after treatment ([2]; MDA-MB-231 xenograft, 24 days, five administrations, 5 mg kg^−1 DOX or DOX equivalent): without obvious lesions in other organs | Cleavage efficiency of MMP-9 relative to MMP-2 ([3]; 0.1 µg mL^−1 MMP-2 or MMP-9, 20 µg mL^−1 DOX-P18, 12 and 24 h, fluorescence intensity at 592 nm (Ex 488 nm)): about 10 times | Enzymatic cleavage by MMP-9 ([3]; 1 mg mL^−1 DOX-P18 with 1 µg mL^−1 MMP-9, 37 °C, HPLC at 6, 12, 24, 72 h, monitored at 500 nm, product DOX-P3 identified by MS): efficiently cleaved | Lung metastasis, prevention schedule (histology D26) ([4]; 25 mg kg^−1 DOX-P18 (5 mg kg^−1 DOX) seven times every 2 days from D0): limited number | Lung and bone metastasis, treatment schedule (histology D26) ([4]; 25 mg kg^−1 DOX-P18 (5 mg kg^−1 DOX) seven times every 2 days from D14): significant metastasis inhibition | Time of highest content in tissues [5]: 6 h | Aggregation state (particle size distribution) ([6]; PBS buffer pH 7.4): nanoparticles could only be detected | Aggregation state (particle size distribution) ([6]; PBS, neutral and weakly acidic media (pH ≤ 6.5; 6.5, 6.0, 5.0)): monomolecular dispersion | Cellular uptake at 4 °C (MFI) ([7]; MDA-MB-231, 40 µg mL^−1 (by DOX content), DMEM 10% FBS, 1 h, 4 °C, flow cytometry, n = 3): strongly suppressed | Share of uptake by Y1R-mediated endocytosis ([7]; MDA-MB-231, 40 µg mL^−1, 1 h 37 °C, Y1R antagonist BIBP3304 20 µM, flow cytometry MFI): 20% | Share of uptake by caveolin-mediated endocytosis [7, 9]: 14% | Share of uptake by micropinocytosis [7, 9]: 27% | Cell fluorescence intensity relative to EDTA-treated group (cellular drug release) ([7]; MDA-MB-231, 48 h, without vs with 5 mM EDTA (MMPs inhibited), flow cytometry, n = 3): almost three times higher | IC50 (cytotoxicity), in words [8]: higher

Reference: PMC10375191, “Transformable Neuropeptide Prodrug with Tumor Microenvironment Responsiveness for Tumor Growth and Metastasis Inhibition of Triple‐Negative Breast Cancer” (Advanced Science, 2023)
